Test results from patent US20100260668A1 (published 2010).

B1: DVD507 (DLL4/VEGF DVD-Ig) (bispecific antibody, human IgG1)
VH: EVQLQQSGPELVKPGASVKMSCKASGYTFTSYVINWVKQKPGQGLEWIGLINPYNDGTKYNEKFKVKATLTSDKSSSTAYMELSSLTSEDSAVYYCASYYYGSRYYFDYWGQGTTLTVSSASTKGPEVQLVESGGGLVQPGGSLRLSCAASGFTISDYWIHWVRQAPGKGLEWVAGITPAGGYTYYADSVKGRFTISADTSKNTAYLQMNSLRAEDTAVYYCARFVFFLPYAMDYWGQGTLVTVSS
VL: DIQMTQSSSYLSVSLGGRVTITCKASDHINNWLAWYQQKPGNAPRLLISGATSLETGVPSRFSGSGSGKDYTLSITSLQTEDVATYYCQQYWSIPLTFGAGTKLELKRTVAAPSVFIFPPDIQMTQSPSSLSASVGDRVTITCRASQDVSTAVAWYQQKPGKAPKLLIYSASFLYSGVPSRFSGSGSGTDFTLTISSLQPEDFATYYCQQSYTTPPTFGQGTKVEIKR
notes: HC linker short, LC linker long; also called DVD507H; DVD507L
B2: DVD501 (DLL4/VEGF DVD-Ig) (bispecific antibody, human IgG1)
VH: EVQLQQSGPELVKPGASVKMSCKASGYTFTSYVINWVKQKPGQGLEWIGLINPYNDGTKYNEKFKVKATLTSDKSSSTAYMELSSLTSEDSAVYYCASYYYGSRYYFDYWGQGTTLTVSSASTKGPSVFPLAPEVQLVESGGGLVQPGGSLRLSCAASGFTISDYWIHWVRQAPGKGLEWVAGITPAGGYTYYADSVKGRFTISADTSKNTAYLQMNSLRAEDTAVYYCARFVFFLPYAMDYWGQGTLVTVSS
VL: DIQMTQSSSYLSVSLGGRVTITCKASDHINNWLAWYQQKPGNAPRLLISGATSLETGVPSRFSGSGSGKDYTLSITSLQTEDVATYYCQQYWSIPLTFGAGTKLELKRTVAAPDIQMTQSPSSLSASVGDRVTITCRASQDVSTAVAWYQQKPGKAPKLLIYSASFLYSGVPSRFSGSGSGTDFTLTISSLQPEDFATYYCQQSYTTPPTFGQGTKVEIKR
notes: HC linker long, LC linker short; also called DVD501H; DVD501L
B3: DVD483 (DLL4/VEGF DVD-Ig) (bispecific antibody, human IgG1)
VH: EVQLVESGGGLVQPGGSLRLSCAASGFTFTDNWISWVRQAPGKGLEWVGYISPNSGFTYYADSVKGRFTISADTSKNTAYLQMNSLRAEDTAVYYCARDNFGGYFDYWGQGTLVTVSSASTKGPEVQLVESGGGLVQPGGSLRLSCAASGFTISDYWIHWVRQAPGKGLEWVAGITPAGGYTYYADSVKGRFTISADTSKNTAYLQMNSLRAEDTAVYYCARFVFFLPYAMDYWGQGTLVTVSS
VL: DIQMTQSPSSLSASVGDRVTITCRASQDVSTAVAWYQQKPGKAPKLLIYSASFLYSGVPSRFSGSGSGTDFTLTISSLQPEDFATTYYCQQSYTGTVTFGQGTKVEIKRTVAAPSVFIFPPDIQMTQSPSSLSASVGDRVTITCRASQDVSTAVAWYQQKPGKAPKLLIYSASFLYSGVPSRFSGSGSGTDFTLTISSLQPEDFATYYCQQSYTTPPTFGQGTKVEIKR
notes: HC linker short, LC linker long; also called DVD483H; DVD483L
B4: DVD461 (DLL4/VEGF DVD-Ig) (bispecific antibody, human IgG1)
VH: QVQLVQSGAEVKKPGASVKISCKASGYSFTAYYIHWVKQAPGQGLEWIGYISSYNGATNYNQKFKGRVTFTTDTSTSTAYMELRSLRSDDTAVYYCARDYDYDVGMDYWGQGTLVTVSSASTKGPEVQLVESGGGLVQPGGSLRLSCAASGFTISDYWIHWVRQAPGKGLEWVAGITPAGGYTYYADSVKGRFTISADTSKNTAYLQMNSLRAEDTAVYYCARFVFFLPYAMDYWGQGTLVTVSS
VL: DIVMTQSPDSLAVSLGERATISCRASESVDNYGISFMKWFQQKPGQPPKLLIYAASNQGSGVPDRFSGSGSGTDFTLTISSLQAEDVAVYYCQQSKEVPWTFGGGTKVEIKRTVAAPSVFIFPPDIQMTQSPSSLSASVGDRVTITCRASQDVSTAVAWYQQKPGKAPKLLIYSASFLYSGVPSRFSGSGSGTDFTLTISSLQPEDFATYYCQQSYTTPPTFGQGTKVEIKR
notes: HC linker short, LC linker long; also called DVD461H; DVD461L
B5: DVD526 (VEGF/DLL4 DVD-Ig) (bispecific antibody, human IgG1)
VH: EVQLVESGGGLVQPGGSLRLSCAASGFTISDYWIHWVRQAPGKGLEWVAGITPAGGYTYYADSVKGRFTISADTSKNTAYLQMNSLRAEDTAVYYCARFVFFLPYAMDYWGQGTLVTVSSASTKGPSVFPLAPEVQLQQSGPELEKPGASVKISCKASGYSFTGYNMNWVKQSNGKSLEWIGNIDPYFGGTNYNQKFKGKATLTVDKSSSTAYMQLKSLTSEDSAVYYCARNYDYDGGCFDYWGQGTTLTVSS
VL: DIQMTQSPSSLSASVGDRVTITCRASQDVSTAVAWYQQKPGKAPKLLIYSASFLYSGVPSRFSGSGSGTDFTLTISSLQPEDFATYYCQQSYTTPPTFGQGTKVEIKRTVAAPQAVVTQESALTTSPGETVTLTCRSSTGAVTTSNYANWVQEKPDHLFTGLIGGTNNRAPGVPARFSGSLIGDKAALTITGAQTEDEAIYFCALWYSNHWVFGGGTKLTVLG
notes: HC linker long, LC linker short; also called DVD526H; DVD526L
B6: DVD531 (DLL4/VEGF DVD-Ig) (bispecific antibody, human IgG1)
VH: EVQLQQSGPELEKPGASVKISCKASGYSFTGYNMNWVKQSNGKSLEWIGNIDPYFGGTNYNQKFKGKATLTVDKSSSTAYMQLKSLTSEDSAVYYCARNYDYDGGCFDYWGQGTTLTVSSASTKGPEVQLVESGGGLVQPGGSLRLSCAASGFTISDYWIHWVRQAPGKGLEWVAGITPAGGYTYYADSVKGRFTISADTSKNTAYLQMNSLRAEDTAVYYCARFVFFLPYAMDYWGQGTLVTVSS
VL: QAVVTQESALTTSPGETVTLTCRSSTGAVTTSNYANWVQEKPDHLFTGLIGGTNNRAPGVPARFSGSLIGDKAALTITGAQTEDEAIYFCALWYSNHWVFGGGTKLTVLGQPKAAPSVTLFPPDIQMTQSPSSLSASVGDRVTITCRASQDVSTAVAWYQQKPGKAPKLLIYSASFLYSGVPSRFSGSGSGTDFTLTISSLQPEDFATYYCQQSYTTPPTFGQGTKVEIKR
notes: HC linker short, LC linker long; also called DVD531H; DVD531L
B7: DVD502 (VEGF/DLL4 DVD-Ig) (bispecific antibody, human IgG1)
VH: EVQLVESGGGLVQPGGSLRLSCAASGFTISDYWIHWVRQAPGKGLEWVAGITPAGGYTYYADSVKGRFTISADTSKNTAYLQMNSLRAEDTAVYYCARFVFFLPYAMDYWGQGTLVTVSSASTKGPSVFPLAPEVQLQQSGPELVKPGASVKMSCKASGYTFTSYVINWVKQKPGQGLEWIGLINPYNDGTKYNEKFKVKATLTSDKSSSTAYMELSSLTSEDSAVYYCASYYYGSRYYFDYWGQGTTLTVSS
VL: DIQMTQSPSSLSASVGDRVTITCRASQDVSTAVAWYQQKPGKAPKLLIYSASFLYSGVPSRFSGSGSGTDFTLTISSLQPEDFATYYCQQSYTTPPTFGQGTKVEIKRTVAAPDIQMTQSSSYLSVSLGGRVTITCKASDHINNWLAWYQQKPGNAPRLLISGATSLETGVPSRFSGSGSGKDYTLSITSLQTEDVATYYCQQYWSIPLTFGAGTKLELKR
notes: HC linker long, LC linker short; also called DVD502H; DVD502L
B8: DVD462 (VEGF/DLL4 DVD-Ig) (bispecific antibody, human IgG1)
VH: EVQLVESGGGLVQPGGSLRLSCAASGFTISDYWIHWVRQAPGKGLEWVAGITPAGGYTYYADSVKGRFTISADTSKNTAYLQMNSLRAEDTAVYYCARFVFFLPYAMDYWGQGTLVTVSSASTKGPQVQLVQSGAEVKKPGASVKISCKASGYSFTAYYIHWVKQAPGQGLEWIGYISSYNGATNYNQKFKGRVTFTTDTSTSTAYMELRSLRSDDTAVYYCARDYDYDVGMDYWGQGTLVTVSS
VL: DIQMTQSPSSLSASVGDRVTITCRASQDVSTAVAWYQQKPGKAPKLLIYSASFLYSGVPSRFSGSGSGTDFTLTISSLQPEDFATYYCQQSYTTPPTFGQGTKVEIKRTVAAPSVFIFPPDIVMTQSPDSLAVSLGERATISCRASESVDNYGISFMKWFQQKPGQPPKLLIYAASNQGSGVPDRFSGSGSGTDFTLTISSLQAEDVAVYYCQQSKEVPWTFGGGTKVEIKR
notes: HC linker short, LC linker long; also called DVD462H; DVD462L
B9: DVD478 (VEGF/DLL4 DVD-Ig) (bispecific antibody, human IgG1)
VH: EVQLVESGGGLVQPGGSLRLSCAASGFTISDYWIHWVRQAPGKGLEWVAGITPAGGYTYYADSVKGRFTISADTSKNTAYLQMNSLRAEDTAVYYCARFVFFLPYAMDYWGQGTLVTVSSASTKGPSVFPLAPEVQLVESGGGLVQPGGSLRLSCAASGFTFTDNWISWVRQAPGKGLEWVGYISPNSGFTYYADSVKGRFTISADTSKNTAYLQMNSLRAEDTAVYYCARDNFGGYFDYWGQGTLVTVSS
VL: DIQMTQSPSSLSASVGDRVTITCRASQDVSTAVAWYQQKPGKAPKLLIYSASFLYSGVPSRFSGSGSGTDFTLTISSLQPEDFATYYCQQSYTTPPTFGQGTKVEIKRTVAAPDIQMTQSPSSLSASVGDRVTITCRASQDVSTAVAWYQQKPGKAPKLLIYSASFLYSGVPSRFSGSGSGTDFTLTISSLQPEDFATTYYCQQSYTGTVTFGQGTKVEIKR
notes: HC linker long, LC linker short; also called DVD478H; DVD478L
B10: DVD484 (VEGF/DLL4 DVD-Ig) (bispecific antibody, human IgG1)
VH: EVQLVESGGGLVQPGGSLRLSCAASGFTISDYWIHWVRQAPGKGLEWVAGITPAGGYTYYADSVKGRFTISADTSKNTAYLQMNSLRAEDTAVYYCARFVFFLPYAMDYWGQGTLVTVSSASTKGPEVQLVESGGGLVQPGGSLRLSCAASGFTFTDNWISWVRQAPGKGLEWVGYISPNSGFTYYADSVKGRFTISADTSKNTAYLQMNSLRAEDTAVYYCARDNFGGYFDYWGQGTLVTVSS
VL: DIQMTQSPSSLSASVGDRVTITCRASQDVSTAVAWYQQKPGKAPKLLIYSASFLYSGVPSRFSGSGSGTDFTLTISSLQPEDFATYYCQQSYTTPPTFGQGTKVEIKRTVAAPSVFIFPPDIQMTQSPSSLSASVGDRVTITCRASQDVSTAVAWYQQKPGKAPKLLIYSASFLYSGVPSRFSGSGSGTDFTLTISSLQPEDFATTYYCQQSYTGTVTFGQGTKVEIKR
notes: HC linker short, LC linker long; also called DVD484H; DVD484L
B11: DVD456 (VEGF/DLL4 DVD-Ig) (bispecific antibody, human IgG1)
VH: EVQLVESGGGLVQPGGSLRLSCAASGFTISDYWIHWVRQAPGKGLEWVAGITPAGGYTYYADSVKGRFTISADTSKNTAYLQMNSLRAEDTAVYYCARFVFFLPYAMDYWGQGTLVTVSSASTKGPSVFPLAPQVQLVQSGAEVKKPGASVKISCKASGYSFTAYYIHWVKQAPGQGLEWIGYISSYNGATNYNQKFKGRVTFTTDTSTSTAYMELRSLRSDDTAVYYCARDYDYDVGMDYWGQGTLVTVSS
VL: DIQMTQSPSSLSASVGDRVTITCRASQDVSTAVAWYQQKPGKAPKLLIYSASFLYSGVPSRFSGSGSGTDFTLTISSLQPEDFATYYCQQSYTTPPTFGQGTKVEIKRTVAAPDIVMTQSPDSLAVSLGERATISCRASESVDNYGISFMKWFQQKPGQPPKLLIYAASNQGSGVPDRFSGSGSGTDFTLTISSLQAEDVAVYYCQQSKEVPWTFGGGTKVEIKR
notes: HC linker long, LC linker short; also called DVD456H; DVD456L

Tests used:
[1] = target: T1, DLL4 (DLL4 ECD/His tag, R&D Systems 1506-D4-050) (UniProt Q9NR61 27-529); assay: Direct bind ELISA on DLL4; DLL4 domain N-term., HC short, LC long
T1 construct: extracellular domain; not shown: His tag

[2] = target: T1, DLL4 (DLL4 ECD/His tag, R&D Systems …); assay: Direct bind ELISA on DLL4; DLL4 domain N-term., HC long, LC short
[3] = target: T1, DLL4 (DLL4 ECD/His tag, R&D Systems …); assay: Direct bind ELISA on DLL4; DLL4 domain C-term., HC long, LC short
[4] = target: T1, DLL4 (DLL4 ECD/His tag, R&D Systems …); assay: Direct bind ELISA on DLL4; DLL4 domain C-term., HC short, LC long

Binder | EC50 [1] | EC50 [3] | other results
B1 | 0.71 nM | – | –
B2 | – | – | EC50 [2]: 0.18 nM
B3 | 0.63 nM | – | –
B4 | 0.52 nM | – | –
B5 | – | 1.57 nM | –
B6 | 0.57 nM | – | –
B7 | – | 3.17 nM | –
B8 | – | – | EC50 [4]: 7.99 nM
B9 | – | 2.53 nM | –
B10 | – | – | EC50 [4]: 1.75 nM
B11 | – | 2.48 nM | –
